In patent publication EP4745153A1, “GLP-1, GIP AND GCG RECEPTOR […] USE THEREOF” (Jiangsu Hengrui Pharmaceuticals Co., Ltd., priority 2023, dated 2025):
Read-outs that look alike come from different tables or passages of the source. Starred links: 1 amine or outer side, 2 acyl side, 3 side chain; linkers in the order of their positions; H or OH if unused. Non-standard residues stand in square brackets, D forms with d. Groups on a side chain read outwards from the residue. No end group written: not given here. *: point of attachment. C20 diacid = O=C(O)CCCCCCCCCCCCCCCCCCC(=O)*; γGlu = O=C(O)[C@H](CCC(=O)[*:2])N[*:1]; αMeL = CC(C)C[C@](C)(N)C(=O)O; αMeK = C[C@](N)(CCCCN)C(=O)O; Iva = CC[C@](C)(N)C(=O)O; AEEA = NCCOCCOCC(=O)O; Aib = CC(C)(N)C(=O)O

Key:
Assay in all cases: cell-based or functional assay
[1] = molecular target: T1, human glucagon-like peptide-1 receptor (human, UniProt P43220 24-463)
[2] = molecular target: T2, human glucose-dependent insulinotropic polypeptide receptor (human, UniProt P48546 22-466)
T2 sequence (looked up): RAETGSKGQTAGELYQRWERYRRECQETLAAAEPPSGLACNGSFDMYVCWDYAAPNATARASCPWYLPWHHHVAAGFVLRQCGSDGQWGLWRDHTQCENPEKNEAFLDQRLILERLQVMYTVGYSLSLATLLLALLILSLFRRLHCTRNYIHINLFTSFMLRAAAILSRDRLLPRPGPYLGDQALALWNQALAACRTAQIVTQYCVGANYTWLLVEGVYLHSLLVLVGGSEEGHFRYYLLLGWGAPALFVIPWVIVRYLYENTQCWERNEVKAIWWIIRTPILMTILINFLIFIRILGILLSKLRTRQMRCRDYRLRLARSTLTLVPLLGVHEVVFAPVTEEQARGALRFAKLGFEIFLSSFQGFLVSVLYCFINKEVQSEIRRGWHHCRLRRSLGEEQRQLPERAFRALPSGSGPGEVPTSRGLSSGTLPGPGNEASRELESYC

human glucagon receptor [3] = molecular target: T3, human glucagon receptor (human, UniProt P47871 26-477)
[4] = molecular target: T1, human glucagon-like peptide-1 receptor; remark: listed apart in the source
[5] = molecular target: T2, human glucose-dependent insulinotropic …; remark: listed apart in the source
human glucagon receptor [6] = molecular target: T3, human glucagon receptor; remark: listed apart in the source

T3 sequence (P47871 26-477): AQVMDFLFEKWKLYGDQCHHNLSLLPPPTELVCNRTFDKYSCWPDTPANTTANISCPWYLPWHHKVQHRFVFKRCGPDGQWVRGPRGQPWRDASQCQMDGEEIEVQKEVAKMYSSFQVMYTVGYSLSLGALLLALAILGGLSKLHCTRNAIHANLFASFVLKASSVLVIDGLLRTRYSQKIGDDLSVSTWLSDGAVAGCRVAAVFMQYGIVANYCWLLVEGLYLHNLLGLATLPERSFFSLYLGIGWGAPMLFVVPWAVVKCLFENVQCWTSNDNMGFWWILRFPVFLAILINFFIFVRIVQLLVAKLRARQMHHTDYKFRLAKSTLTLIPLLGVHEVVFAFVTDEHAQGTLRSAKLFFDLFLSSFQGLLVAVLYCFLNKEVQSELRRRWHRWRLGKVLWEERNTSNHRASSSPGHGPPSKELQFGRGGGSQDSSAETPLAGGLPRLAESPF

Row | Binder | Activity against human GLP-1R (EC50 nM) [1] [nM] | Activity against human GIPR (EC50 nM) [2] [nM] | Activity against human GCGR (EC50 nM) (human glucagon receptor [3]) [nM] | Activity against human GLP-1R (EC50 nM) [4] [nM] | Activity against human GIPR (EC50 nM) [5] [nM] | Activity against human GCGR (EC50 nM) (human glucagon receptor [6]) [nM]
1 | H[Aib]HGTFTSDLS[αMeK]ILEK([AEEA-AEEA-γGlu-C20 diacid])KAA[Iva]EFVEWLIEGGPSSGAPPPS-NH2 (N-terminus assumed; SMILES CC[C@H](C)[C@H](NC(=O)[C@H](CC(C)C)NC(=O)[C@H](Cc1c[nH]c2ccccc12)NC(=O)[C@H](CCC(=O)O)NC(=O)[C@@H](NC(=O)[C@H](Cc1ccccc1)NC(=O)[C@H](CCC(=O)O)NC(=O)[C@](C)(CC)NC(=O)[C@H](C)NC(=O)[C@H](C)NC(=O)[C@H](CCCCN)NC(=O)[C@H](CCCCNC(=O)COCCOCCNC(=O)COCCOCCNC(=O)CC[C@H](NC(=O)CCCCCCCCCCCCCCCCCCC(=O)O)C(=O)O)NC(=O)[C@H](CCC(=O)O)NC(=O)[C@H](CC(C)C)NC(=O)[C@@H](NC(=O)[C@](C)(CCCCN)NC(=O)[C@H](CO)NC(=O)[C@H](CC(C)C)NC(=O)[C@H](CC(=O)O)NC(=O)[C@H](CO)NC(=O)[C@@H](NC(=O)[C@H](Cc1ccccc1)NC(=O)[C@@H](NC(=O)CNC(=O)[C@H](Cc1c[nH]cn1)NC(=O)C(C)(C)NC(=O)[C@@H](N)Cc1c[nH]cn1)[C@@H](C)O)[C@@H](C)O)[C@@H](C)CC)C(C)C)C(=O)N[C@@H](CCC(=O)O)C(=O)NCC(=O)NCC(=O)N1CCC[C@H]1C(=O)N[C@@H](CO)C(=O)N[C@@H](CO)C(=O)NCC(=O)N[C@@H](C)C(=O)N1CCC[C@H]1C(=O)N1CCC[C@H]1C(=O)N1CCC[C@H]1C(=O)N[C@@H](CO)C(N)=O) [Compound No. 0134] | 0.017 | 0.002 | 0.025 | – | – | –
2 | H[Aib]HGTFTSDYSKY[αMeL]EK([AEEA-AEEA-γGlu-C20 diacid])KAAQEFVEWLLAGGPSSGAPPPS-NH2 (N-terminus assumed; SMILES CC(C)C[C@H](NC(=O)[C@H](CC(C)C)NC(=O)[C@H](Cc1c[nH]c2ccccc12)NC(=O)[C@H](CCC(=O)O)NC(=O)[C@@H](NC(=O)[C@H](Cc1ccccc1)NC(=O)[C@H](CCC(=O)O)NC(=O)[C@H](CCC(N)=O)NC(=O)[C@H](C)NC(=O)[C@H](C)NC(=O)[C@H](CCCCN)NC(=O)[C@H](CCCCNC(=O)COCCOCCNC(=O)COCCOCCNC(=O)CC[C@H](NC(=O)CCCCCCCCCCCCCCCCCCC(=O)O)C(=O)O)NC(=O)[C@H](CCC(=O)O)NC(=O)[C@](C)(CC(C)C)NC(=O)[C@H](Cc1ccc(O)cc1)NC(=O)[C@H](CCCCN)NC(=O)[C@H](CO)NC(=O)[C@H](Cc1ccc(O)cc1)NC(=O)[C@H](CC(=O)O)NC(=O)[C@H](CO)NC(=O)[C@@H](NC(=O)[C@H](Cc1ccccc1)NC(=O)[C@@H](NC(=O)CNC(=O)[C@H](Cc1c[nH]cn1)NC(=O)C(C)(C)NC(=O)[C@@H](N)Cc1c[nH]cn1)[C@@H](C)O)[C@@H](C)O)C(C)C)C(=O)N[C@@H](C)C(=O)NCC(=O)NCC(=O)N1CCC[C@H]1C(=O)N[C@@H](CO)C(=O)N[C@@H](CO)C(=O)NCC(=O)N[C@@H](C)C(=O)N1CCC[C@H]1C(=O)N1CCC[C@H]1C(=O)N1CCC[C@H]1C(=O)N[C@@H](CO)C(N)=O) [Compound No. 0108] | – | – | – | 0.014 | 0.078 | 0.315
3 | H[Aib]HGTFTSDYSILLEK([AEEA-AEEA-γGlu-C20 diacid])KAA[Iva]EFVEWLLAGGPSSGAPPPS-NH2 [Compound No. 0135] | 0.013 | 0.001 | 0.019 | – | – | –
4 | H[Aib]HGTFTSDYSKYLEK([AEEA-AEEA-γGlu-C20 diacid])K[Aib]AQEFVEWLLAGGPSSGAPPPS-NH2 (N-terminus assumed; SMILES CC(C)C[C@H](NC(=O)[C@H](CC(C)C)NC(=O)[C@H](Cc1c[nH]c2ccccc12)NC(=O)[C@H](CCC(=O)O)NC(=O)[C@@H](NC(=O)[C@H](Cc1ccccc1)NC(=O)[C@H](CCC(=O)O)NC(=O)[C@H](CCC(N)=O)NC(=O)[C@H](C)NC(=O)C(C)(C)NC(=O)[C@H](CCCCN)NC(=O)[C@H](CCCCNC(=O)COCCOCCNC(=O)COCCOCCNC(=O)CC[C@H](NC(=O)CCCCCCCCCCCCCCCCCCC(=O)O)C(=O)O)NC(=O)[C@H](CCC(=O)O)NC(=O)[C@H](CC(C)C)NC(=O)[C@H](Cc1ccc(O)cc1)NC(=O)[C@H](CCCCN)NC(=O)[C@H](CO)NC(=O)[C@H](Cc1ccc(O)cc1)NC(=O)[C@H](CC(=O)O)NC(=O)[C@H](CO)NC(=O)[C@@H](NC(=O)[C@H](Cc1ccccc1)NC(=O)[C@@H](NC(=O)CNC(=O)[C@H](Cc1c[nH]cn1)NC(=O)C(C)(C)NC(=O)[C@@H](N)Cc1c[nH]cn1)[C@@H](C)O)[C@@H](C)O)C(C)C)C(=O)N[C@@H](C)C(=O)NCC(=O)NCC(=O)N1CCC[C@H]1C(=O)N[C@@H](CO)C(=O)N[C@@H](CO)C(=O)NCC(=O)N[C@@H](C)C(=O)N1CCC[C@H]1C(=O)N1CCC[C@H]1C(=O)N1CCC[C@H]1C(=O)N[C@@H](CO)C(N)=O) [Compound No. 0110] | – | – | – | 0.016 | 0.043 | 0.044
5 | H[Aib]HGTFTSDLS[αMeK]LLEK([AEEA-AEEA-γGlu-C20 diacid])KAA[Iva]EFVEWLIEGGPSSGAPPPS-NH2 (N-terminus assumed; SMILES CC[C@H](C)[C@H](NC(=O)[C@H](CC(C)C)NC(=O)[C@H](Cc1c[nH]c2ccccc12)NC(=O)[C@H](CCC(=O)O)NC(=O)[C@@H](NC(=O)[C@H](Cc1ccccc1)NC(=O)[C@H](CCC(=O)O)NC(=O)[C@](C)(CC)NC(=O)[C@H](C)NC(=O)[C@H](C)NC(=O)[C@H](CCCCN)NC(=O)[C@H](CCCCNC(=O)COCCOCCNC(=O)COCCOCCNC(=O)CC[C@H](NC(=O)CCCCCCCCCCCCCCCCCCC(=O)O)C(=O)O)NC(=O)[C@H](CCC(=O)O)NC(=O)[C@H](CC(C)C)NC(=O)[C@H](CC(C)C)NC(=O)[C@](C)(CCCCN)NC(=O)[C@H](CO)NC(=O)[C@H](CC(C)C)NC(=O)[C@H](CC(=O)O)NC(=O)[C@H](CO)NC(=O)[C@@H](NC(=O)[C@H](Cc1ccccc1)NC(=O)[C@@H](NC(=O)CNC(=O)[C@H](Cc1c[nH]cn1)NC(=O)C(C)(C)NC(=O)[C@@H](N)Cc1c[nH]cn1)[C@@H](C)O)[C@@H](C)O)C(C)C)C(=O)N[C@@H](CCC(=O)O)C(=O)NCC(=O)NCC(=O)N1CCC[C@H]1C(=O)N[C@@H](CO)C(=O)N[C@@H](CO)C(=O)NCC(=O)N[C@@H](C)C(=O)N1CCC[C@H]1C(=O)N1CCC[C@H]1C(=O)N1CCC[C@H]1C(=O)N[C@@H](CO)C(N)=O) [Compound No. 0133] | 0.016 | 0.002 | 0.03 | – | – | –
6 | H[Aib]HGTFTSDYSKYLEK([AEEA-AEEA-γGlu-C20 diacid])[αMeK]AAQEFVEWLLAGGPSSGAPPPS-NH2 (N-terminus assumed; SMILES CC(C)C[C@H](NC(=O)[C@H](CC(C)C)NC(=O)[C@H](Cc1c[nH]c2ccccc12)NC(=O)[C@H](CCC(=O)O)NC(=O)[C@@H](NC(=O)[C@H](Cc1ccccc1)NC(=O)[C@H](CCC(=O)O)NC(=O)[C@H](CCC(N)=O)NC(=O)[C@H](C)NC(=O)[C@H](C)NC(=O)[C@](C)(CCCCN)NC(=O)[C@H](CCCCNC(=O)COCCOCCNC(=O)COCCOCCNC(=O)CC[C@H](NC(=O)CCCCCCCCCCCCCCCCCCC(=O)O)C(=O)O)NC(=O)[C@H](CCC(=O)O)NC(=O)[C@H](CC(C)C)NC(=O)[C@H](Cc1ccc(O)cc1)NC(=O)[C@H](CCCCN)NC(=O)[C@H](CO)NC(=O)[C@H](Cc1ccc(O)cc1)NC(=O)[C@H](CC(=O)O)NC(=O)[C@H](CO)NC(=O)[C@@H](NC(=O)[C@H](Cc1ccccc1)NC(=O)[C@@H](NC(=O)CNC(=O)[C@H](Cc1c[nH]cn1)NC(=O)C(C)(C)NC(=O)[C@@H](N)Cc1c[nH]cn1)[C@@H](C)O)[C@@H](C)O)C(C)C)C(=O)N[C@@H](C)C(=O)NCC(=O)NCC(=O)N1CCC[C@H]1C(=O)N[C@@H](CO)C(=O)N[C@@H](CO)C(=O)NCC(=O)N[C@@H](C)C(=O)N1CCC[C@H]1C(=O)N1CCC[C@H]1C(=O)N1CCC[C@H]1C(=O)N[C@@H](CO)C(N)=O) [Compound No. 0109] | – | – | – | 0.011 | 0.027 | 0.031
